System: MS2 coat protein
Test: apparent KD of MS2 coat protein; designed switch direction (-1 OFF switch, 1 ON switch): 1; higher = weaker reporter binding
How it was run: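 Each step of the titration lasted 0.8–1.5 h at the lowest concentration and 10–20 min at the highest. The protein, SNAP-549-labelled MS2 coat protein, went from 0.7 or 1.5 nM doubling to 3 µM over RNA switches transcribed on Illumina chips by stalled E. coli RNA polymerase. Normalised cluster fluorescence was curve-fitted, and the per-design median over clusters is given as apparent KD.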

[1] = Eterna round: R95, input ligand: FMN 200 uM
[2] = Eterna round: R95, input ligand: microRNA oligo, concentration not stated
[3] = Eterna round: R95, input ligand: none
[4] = input ligand: microRNA oligo, concentration not stated

| Sequence | apparent KD of MS2 coat protein [1] [nM] | apparent KD of MS2 coat protein [2] [nM] | apparent KD of MS2 coat protein [3] [nM] | apparent KD of MS2 coat protein (input ligand: FMN 200 uM) [nM] | apparent KD of MS2 coat protein [4] [nM] | apparent KD of MS2 coat protein (input ligand: none) [nM] |
| --- | --- | --- | --- | --- | --- | --- |
| GGUGAGAGAGUCUAGGAUAUGAAAGGAGAGACAUGAGGAUCACCCAUGUAAGAGAGAGAGGAGAGUUAGAAGGAGAAGAGAGUGG [Altered State 2-23 - Jieux - Same State 2] (puzzle: Same State 2) | 26.8 | 32 | 47 | – | – | – |
| GGUCCAGCCUGAGCUGGACAAAAGCAUGUACAUGAGGAUCACCCAUGUCAUGUACAAGCUUUUUGCUCGUCUUAAGU [Mat - hsa-mir-208a - 86] (puzzle: Sensor for hsa-mir-208a) | 508 | 16.8 | 927 | – | – | – |
| GUUACAUGAGGAUCACCCAUGUAUGUGUGGGAGUAAGUGACUUAGGAUAUCUAAUAUUUAAAUUAAGAGAAGGAAGAUUGUUGU [JMF's solution 5] (Eterna round: R96, puzzle: Same State NG 3) | – | – | – | 266 | 131 | 202 |
| GAGGGACAGACCAACAUGAGGAUCACCCAUGUCCUCGCAGUUCAGGAUAUCCGGAGGUAGACGAAGGAGAAGGGAAGGUGAACC [AK SSNG3-V2-36] (Eterna round: R96, puzzle: Same State NG 3) | – | – | – | 266 | 382 | 207 |
| UAGAAACAUGAGGAUCACCCAUGUGGGUUAAACACAGGAUAUCACACCAAACGAAAGGCGUGAGAAGGGUGACCGU [Xeonreais] (puzzle: Same State 1) | 62 | 41.2 | 39.1 | – | – | – |
| UGCCUGAGUCGAGGAUAUUAUGGAUCCUCUAAUACAUGAGGAUCACCCAUGUAAUUAAUUAUACAUGAGAAGGCGACUCAGGCA [SSNG2/12-A2] (Eterna round: R96, puzzle: Same State NG 2) | – | – | – | 278 | 6.26 | 66.2 |
| ACUCGGCAGAUAGGAUAUCCUGCAUGGAUAGUAGGAGAAGGAUCGUGCGCACAUGAGGAUCACCCAUGUGCCAAAUAAUAACAA [Reatedor] (Eterna round: R96, puzzle: Same State NG 1) | – | – | – | 11 | 12.8 | 18.4 |
| CAUCGUUUGAUAGGAUAUCGCUAUACAUGAGGAUCACCCAUGUUUACCACGCUGGUUUUUCAUACCGAGAAGGAUUCUGAUGAC [salish99_SSNG02_r04_014] (Eterna round: R96, puzzle: Same State NG 2) | – | – | – | 27.3 | 27.7 | 30.2 |
| ACGUCGAUAUCACAGGAUAUACUCACAUCUACAUGAGGAUCACCCAUGUAGCGGUAUUCCGGUGCGUAGAAGGGUGAUGGACGAC [Same State 2 - Mod of Artece v.4] (puzzle: Same State 2) | 14.4 | 12.4 | 12.2 | – | – | – |
| AGAUCAUGACGAGGAUAUGGAACAUGAGGAUCACCCAUGUAUGUUCCAUAACGCGAAUGACGAAUCCAGAAGGCGUCGUGAUCA [Mat - Same State NG 2 - JL mod - D26] (Eterna round: R96, puzzle: Same State NG 2) | – | – | – | 18.1 | 92.1 | 116 |
| AGUCCAGCCUGAGCUGGACAAAAGCAUGUACAUGAGGAUCACCCAUGUUCAUGUACAAGCUUUUUGCUCGUCUUAAG [salish99_208a_r3_028] (puzzle: Sensor for hsa-mir-208a) | 606 | 16 | 602 | – | – | – |
| AUAAGAAACACAGGAUAUACCGCACUUAACGCGGUAGAAGGGUGGGACAUGAGGAUCACCCAUGUGGCCCGGGCGCCGGACCGC [Edquzative] (Eterna round: R96, puzzle: Same State NG 1) | – | – | – | 556 | 10 | 122 |
| GGAGCCAGCACCGAGGAUAUUCAUAUUAAAACAUGAGGAUCACCCAUGUAGGCCAGAAGGCCUUGGGAGAAGGCGGACUGGCUCG [Xeonanis - 11] (Eterna round: R96, puzzle: Same State 2) | – | – | – | 18.8 | 212 | 364 |
| GUACUACAUGAGGAUCACCCAUGUACAAAUGUACGAGGAUAUGCAUGGACGAAAGUUGGUGCAGAAGGCGUAGUAC [Pin2Pin #4] (puzzle: Same State 1) | – | 27.1 | – | – | – | – |
| ACAGAGUGAAGACAGGAUAUUCGCGAUGGCACAUGAGGAUCACCCAUGUUUUGAGCACAUAAACAGAAGAAGGGUUAAAACUCAG [Zadier] (Eterna round: R96, puzzle: Same State 2) | – | – | – | 13.6 | 74.1 | 104 |
| UGGCUCAGACGAGGAUAUAUGUGGUCACAUGAGGAUCACCCAUGUCUCGAGCUUCGGCUCGAGGCAUAGAAGGUGUCUGAGCCA [SSNG2/5-C2] (Eterna round: R96, puzzle: Same State NG 2) | – | – | – | 227 | 16 | 33.9 |
| GGUCCCUACGCACAGGAUAUUCUUUUGGCAACAUGAGGAUCACCCAUGUGUGCCGAUCAUGGUUAGAAGAAGGGUGGUAGGGACC [Usisus] (puzzle: Same State 2) | 9.87 | 12.9 | 13.5 | – | – | – |
| UUAAUAAAGUAAGGAUAUACAUGAGGAUCACUCGUAGAAGGUACUAUACAUGAGGAUCACCCAUGUUCCGGUCAGAAGACUGGA [Mat - Same State NG 1 - JL mod - D4] (Eterna round: R96, puzzle: Same State NG 1) | – | – | – | – | 440 | – |
| CGGAAAAUCGUAGGAUAUCUAGGAUAUGAACGAGGAUCACCCGAGCAGCAUCAGCGCAUCAGAGGAGAGAAGGACGAUGAUGCG [pwkr ssNG2 2F5 2FMN.5] (Eterna round: R96, puzzle: Same State NG 2) | – | – | – | 1930 | 1100 | 1510 |
| AACAAUCUAUCUGAGGAUAUCAUGAAUUAAACAUGAGGAUCACCCAUGUGCAGGAAAACUGCAUAUGAGAAGGCAGAUAGAUUGA [salish99_ss2_r3_032] (puzzle: Same State 2) | 40.2 | 707 | 58.7 | – | – | – |
| GGAGCCGGCACUGAGGAUAUUCAUAUUAAAACAUGAGGAUCACCCAUGUAGGCCAGAAGGCCUUGGGAGAAGGCAGGCCGGCCCG [Bibimoar - 1] (puzzle: Same State 2) | 18.8 | 177 | 276 | – | – | – |
| GAAAAGACAUGAGGAUCACCCAUGUGAAAGCCUAAGGGCCCACAGGAUAUACAGUGAAAAGCACUGUAGAAGGGUGAUAAAGAC [Ordibidi] (Eterna round: R96, puzzle: Same State NG 3) | – | – | – | 228 | 271 | 172 |
| GCCAUCCAGUGAGGAUAUGGCACCGUUUCGGUGCCAGAAGGCAUGUCAAUUGACAUGAGGAUCACCCAUGUAUUAUGGAUGGCA [JL Fiskers NG1ss - 33 mod 1] (Eterna round: R96, puzzle: Same State NG 1) | – | – | – | 96.2 | 423 | 1110 |

Reference: the supplement of paper PMC9170038
